In assay [1] the target is human TEM1 (endosialin, CD248) on cells (human) (UniProt Q9HCU0). In words: live cell-based ELISA, binding to MS1-TEM1 minus binding to MS1 cells; positive control. For orientation: In an ELISA, binding on a coated surface is turned into a signal by an enzyme label.
In assay [2] the target is T1, human TEM1 recombinant protein fused to GST (rhTEM1-GST) (human) (UniProt Q9HCU0).
T1 sequence: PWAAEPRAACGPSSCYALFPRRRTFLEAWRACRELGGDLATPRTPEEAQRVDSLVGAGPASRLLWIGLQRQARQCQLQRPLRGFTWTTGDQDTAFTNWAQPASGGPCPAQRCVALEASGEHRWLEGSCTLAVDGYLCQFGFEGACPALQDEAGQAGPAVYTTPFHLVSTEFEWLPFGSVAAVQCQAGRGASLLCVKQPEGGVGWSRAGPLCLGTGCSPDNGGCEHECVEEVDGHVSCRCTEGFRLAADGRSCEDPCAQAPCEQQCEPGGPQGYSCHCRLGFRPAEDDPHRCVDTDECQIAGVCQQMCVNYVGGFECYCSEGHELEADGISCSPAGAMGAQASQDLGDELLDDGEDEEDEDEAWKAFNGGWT
In words: ELISA on plate-coated rhTEM1-GST, KD=2[Ab']t-[Ab]t.

Assay [3] concerns the target T1, human TEM1 recombinant protein fused to GST (rhTEM1-GST) (human). The assay is described as follows: ELISA on plate-coated rhTEM1-GST, KD=2[Ab']t-[Ab]t. This is another data set of the same source.
The target in assay [4] is human TEM1 (endosialin, CD248) on cells (human) (UniProt Q9HCU0). The assay is described as follows: live cell-based ELISA, binding to MS1-TEM1 minus binding to MS1 cells, HA-HRP detection.
Assay [5] has the same target. In words: live cell-based ELISA on MS1-TEM1 cells; reference scFv78.

Consider five molecules from US9783610B2.

The Kd is the equilibrium constant for the complex coming apart.

Values joined by “and” are separate entries in the source; they are usually repeats but may differ in a detail not shown here. Equal values may be shown once. Read-outs that look alike come from different tables or passages of the source.

For MORAB004 antibody (Morphotek, Inc), the Kd in assay [1] was found to be 0.27 nM.

B1: scFv-78 (scFv)
scFv: VQPVLTQPPSLSASPGASASLTCTLRSDINVGSYRISWYQQKPGSPPQYLLSYISDSDKQKGSGVPSRFSGSKDASANAGILLISGLQSEDEADYYCMIWHNSAGVFGGGTKLTVLGGGSSRSSSSGGGGSGGGGQVQLQESGGTLVQPGGSLRLSCEASGFTFSNYAMGWVRQTPGKGLEWLSAIRKSGTTTYYADSVKGRFIISRDNSKNTLYLQMNRLRVGDTATYYCATHPIAGYWGQGTLVTVSSASTKGPS
For B1, the Kd in assay [2] is 5.8 nM and 4.5 nM and 2.8 nM; in assay [3] it was 4.3 nM.

B2: scFv78 (expressed in 293F cells, purified on anti-HA beads) (scFv)
scFv: B1 scFv
In assay [4], B2 yielded a Kd of 2.08 nM.

B3: Anti-TEM1 scFv78-minibody (scFv)
chain: VQPVLTQPPSLSASPGASASLTCTLRSDINVGSYRISWYQQKPGSPPQYLLSYISDSDKQKGSGVPSRFSGSKDASANAGILLISGLQSEDEADYYCMIWHNSAGVFGGGTKLTVLGGGSSRSSSSGGGGSGGGGQVQLQESGGTLVQPGGSLRLSCEASGFTFSNYAMGWVRQTPGKGLEWLSAIRKSGTTTYYADSVKGRFIISRDNSKNTLYLQMNRLRVGDTATYYCATHPIAGYWGQGTLVTVSSASTKGPSVGGGSLIKDKTHTCPPCPAPEL
On to B3, for which the fold lower KD than scFv78 in assay [5] was determined as 5 fold. The molecule further registered a Kd in assay [4] of 0.45 nM.

B4: Anti-TEM1 scFv78-CH3 (protein)
chain: VQPVLTQPPSLSASPGASASLTCTLRSDINVGSYRISWYQQKPGSPPQYLLSYISDSDKQKGSGVPSRFSGSKDASANAGILLISGLQSEDEADYYCMIWHNSAGVFGGGTKLTVLGGGSSRSSSSGGGGSGGGGQVQLQESGGTLVQPGGSLRLSCEASGFTFSNYAMGWVRQTPGKGLEWLSAIRKSGTTTYYADSVKGRFIISRDNSKNTLYLQMNRLRVGDTATYYCATHPIAGYWGQGTLVTVSSASTKGPSVGGGSLIKDKTHTCPPCPSKAKGQPREPQVYTLPPSREEMTKNQVSLTCLVKGFYPSDIAVEWESNGQPENNYKTTPPVLDSDGSFFLYSKLTVDKSRWQQGNVFSCSVMHEALHNHYTQKSLSLSPGK
Regarding B4, the fold lower KD than scFv78 in assay [5] was 5 fold. In assay [4], this molecule yielded a Kd of 0.34 nM.
